# Results from US20240150422A1.
# Target: IL-12 receptor on HEK-Blue IL-12 cells (InvivoGen) (human) (UniProt P42701)
# Assay: cell-based or functional assay
# IL-12 receptor on HEK-Blue IL-12 cells (InvivoGen) (human), sequence (chain, as listed by the source limits assumed, chain 2 of 2, other chains not shown): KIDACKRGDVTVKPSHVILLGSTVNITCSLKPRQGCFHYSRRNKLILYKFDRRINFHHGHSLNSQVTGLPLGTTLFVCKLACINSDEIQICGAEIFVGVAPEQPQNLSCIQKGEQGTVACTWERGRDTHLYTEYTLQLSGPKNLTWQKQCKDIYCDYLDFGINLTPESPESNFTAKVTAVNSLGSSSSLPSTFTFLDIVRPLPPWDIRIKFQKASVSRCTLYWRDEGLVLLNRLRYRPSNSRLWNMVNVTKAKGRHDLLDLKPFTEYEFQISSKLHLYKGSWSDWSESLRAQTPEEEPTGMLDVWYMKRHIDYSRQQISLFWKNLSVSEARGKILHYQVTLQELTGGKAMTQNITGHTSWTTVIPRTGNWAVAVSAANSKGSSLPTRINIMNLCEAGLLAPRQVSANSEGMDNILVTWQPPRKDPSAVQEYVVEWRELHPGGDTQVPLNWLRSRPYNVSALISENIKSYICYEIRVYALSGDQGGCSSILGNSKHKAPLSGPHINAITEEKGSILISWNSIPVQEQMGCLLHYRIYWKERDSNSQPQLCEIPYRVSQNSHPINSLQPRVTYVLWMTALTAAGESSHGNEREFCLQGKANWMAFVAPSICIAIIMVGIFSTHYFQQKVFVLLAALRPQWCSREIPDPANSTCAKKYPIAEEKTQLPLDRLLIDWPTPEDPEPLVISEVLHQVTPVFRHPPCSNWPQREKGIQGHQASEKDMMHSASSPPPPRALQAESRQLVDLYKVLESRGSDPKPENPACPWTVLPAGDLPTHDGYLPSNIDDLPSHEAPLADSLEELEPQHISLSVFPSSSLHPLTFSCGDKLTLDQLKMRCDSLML
Substance,"HEK-Blue IL-12 reporter assay, fold reduction in potency (fold (vs IL-12 Fc w.t.))","HEK-Blue IL-12 reporter assay, fold reduction in EC50 value (fold (vs wild-type))"
IL-12 Fc double mutant Y40A/K170A (Example 7) (from UniProt P29459 23-219; P29460 23-328) (Fc fusion),–,6540
IL-12 Fc double mutant Y40A/K168A (Example 7) (from UniProt P29459 23-219; P29460 23-328) (Fc fusion),–,67
IL-12 Fc double mutant Y40A/P127A (format of Example 1) (from UniProt P29459 23-219; P29460 23-328) (Fc fusion),40,–

# Further lines, results first:
"HEK-Blue IL-12 reporter assay, fold reduction in potency (fold (vs IL-12 Fc w.t.))","HEK-Blue IL-12 reporter assay, fold reduction in EC50 value (fold (vs wild-type))",Substance
38,–,IL-12 Fc double mutant Y40A/D126A (format of Example 1) (from UniProt P29459 23-219; P29460 23-328) (Fc fusion)
404,–,IL-12 Fc triple mutant Y40A/D126A/P127A (format of Example 1) (from UniProt P29459 23-219; P29460 23-328) (Fc fusion)
451,–,IL-12 Fc quadruple mutant Y40A/T43A/D126A/P127A (format of Example 1) (from UniProt P29459 23-219; P29460 23-328) (Fc fusion)
–,44,IL-12 Fc double mutant Y40A/R129A (Example 7) (from UniProt P29459 23-219; P29460 23-328) (Fc fusion)
